Experimental data: PMC3701042, “Structural Studies of a Bacterial tRNA^HIS Guanylyltransferase (Thg1)-Like Protein, with Nucleotide in the Activation and Nucleotidyl Transfer Sites” (PLoS ONE, 2013)

How the values were obtained:
[1] = molecular target: Bacillus thuringiensis tRNA^His guanylyltransferase (Thg1)-like protein (TLP) (Bacillus thuringiensis); test: crystal structure; BtTLP co-crystallised with ~2 mM GTP; tetragonal crystals, space group P4_(1), 2.96 Å; four monomers per asymmetric unit
[2] = molecular target: Bacillus thuringiensis tRNA^His guanylyltransferase (Thg1)-like protein (TLP) (Bacillus thuringiensis); test: crystal structure; BtTLP co-crystallised with ~1 mM ATP; orthorhombic crystals, space group C222_(1), 2.35 Å; four molecules per asymmetric unit (two dimers)

stoichiometry N [1]: 4
stoichiometry N [2]: 4
Substance: Bacillus thuringiensis tRNA^His guanylyltransferase (Thg1)-like protein (TLP) (enzyme)
